Numbering of substitutions follows the chain as printed. Names may count otherwise.
B1: S277C Acrylodan: tsGBP2_C277 (SEQ ID NO: 31) Acrylodan conjugate (conjugate)
chain: MKLEIFSWWAGDEGPALEALIRLYKQKYPGVEVINATVTGGAGVNAKAVLKTRMLGGDPPDTFQVHAGQELIGTWVVADRMEDLTSLFRQEGWLQAFPKGLIDLLSYKGGIWSVPVNIHRSNVMWYIPAKLKEWGVTPPKTWAEFLATAQTLKRKGLEAPLALGENWTQQHLWESVALATLGADGWNNLWSGKLKFTDPKAVAVWETFGKVLDAANKDAAGLSWQQAVDRVVQGKAAFNIMGDWAAGYMSTTLKLKPGTDFAWTPSPGTSGIFMMLCDSFGLPKGAKNRQNAINWLKLVGSKEGQDTFNPLKGSIAARLDSDPAKYNAYGQSAMKDWKSNRIVGSLVHGAVAPESFMSQFGTVMEIFLQSRNPQAAANAAQAIANQVGLGRGGSHHHHHH
modifications: Acrylodan conjugate; tsGBP2_C277 (cysteine substitution mutant with signal peptide replaced with M and a GGSHHHHHH at C-terminus)
B2: W9C Acrylodan: tsGBP2_C9 (SEQ ID NO: 18) Acrylodan conjugate (conjugate)
chain: B1 chain with W9C, C277S
modifications: Acrylodan conjugate; tsGBP2_C9 (9C substitution mutant with signal peptide replaced with M and a GGSHHHHHH at C-terminus)
B3: W337 Acrylodan: tsGBP2_C337 (SEQ ID NO: 34) Acrylodan conjugate (conjugate)
chain: B1 chain with C277S, W337C
modifications: Acrylodan conjugate; tsGBP2_C337 (337C substitution mutant with signal peptide replaced with M and a GGSHHHHHH at C-terminus)
B4: H348 Acrylodan: tsGBP2_C348 (SEQ ID NO: 35) Acrylodan conjugate (conjugate)
chain: B1 chain with C277S, H348C
modifications: Acrylodan conjugate; tsGBP2_C348 (348C substitution mutant with signal peptide replaced with M and a GGSHHHHHH at C-terminus)
B5: W8C Acrylodan: tsGBP2_C8 (SEQ ID NO: 17) Acrylodan conjugate (conjugate)
chain: B1 chain with W8C, C277S
modifications: Acrylodan conjugate; tsGBP2_C8 (8C substitution mutant with signal peptide replaced with M and a GGSHHHHHH at C-terminus)
B6: D278C Acrylodan: tsGBP2_C278 (SEQ ID NO: 32) Acrylodan conjugate (conjugate)
chain: B1 chain with C277S, D278C
modifications: Acrylodan conjugate; tsGBP2_C278 (278C substitution mutant with signal peptide replaced with M and a GGSHHHHHH at C-terminus)
B7: K312C Acrylodan: tsGBP2_C312 (SEQ ID NO: 33) Acrylodan conjugate (conjugate)
chain: B1 chain with C277S, K312C
modifications: Acrylodan conjugate; tsGBP2_C312 (312C substitution mutant with signal peptide replaced with M and a GGSHHHHHH at C-terminus)
B8: M357 Acrylodan: tsGBP2_C357 (SEQ ID NO: 36) Acrylodan conjugate (conjugate)
chain: B1 chain with C277S, M357C
modifications: Acrylodan conjugate; tsGBP2_C357 (357C substitution mutant with signal peptide replaced with M and a GGSHHHHHH at C-terminus)
B9: W337 Badan: tsGBP2_C337 (SEQ ID NO: 34) Badan conjugate (conjugate)
chain: B1 chain with C277S, W337C
modifications: Badan conjugate; tsGBP2_C337 (337C substitution mutant with signal peptide replaced with M and a GGSHHHHHH at C-terminus)
B10: D278C Badan: tsGBP2_C278 (SEQ ID NO: 32) Badan conjugate (conjugate)
chain: B1 chain with C277S, D278C
modifications: Badan conjugate; tsGBP2_C278 (278C substitution mutant with signal peptide replaced with M and a GGSHHHHHH at C-terminus)
B11: M357 Badan: tsGBP2_C357 (SEQ ID NO: 36) Badan conjugate (conjugate)
chain: B1 chain with C277S, M357C
modifications: Badan conjugate; tsGBP2_C357 (357C substitution mutant with signal peptide replaced with M and a GGSHHHHHH at C-terminus)
B12: S277C Badan: tsGBP2_C277 (SEQ ID NO: 31) Badan conjugate (conjugate)
chain: B1 chain
modifications: Badan conjugate; tsGBP2_C277 (cysteine substitution mutant with signal peptide replaced with M and a GGSHHHHHH at C-terminus)
B13: H348 Badan: tsGBP2_C348 (SEQ ID NO: 35) Badan conjugate (conjugate)
chain: B1 chain with C277S, H348C
modifications: Badan conjugate; tsGBP2_C348 (348C substitution mutant with signal peptide replaced with M and a GGSHHHHHH at C-terminus)
B14: W8C Badan: tsGBP2_C8 (SEQ ID NO: 17) Badan conjugate (conjugate)
chain: B1 chain with W8C, C277S
modifications: Badan conjugate; tsGBP2_C8 (8C substitution mutant with signal peptide replaced with M and a GGSHHHHHH at C-terminus)
B15: K312C Badan: tsGBP2_C312 (SEQ ID NO: 33) Badan conjugate (conjugate)
chain: B1 chain with C277S, K312C
modifications: Badan conjugate; tsGBP2_C312 (312C substitution mutant with signal peptide replaced with M and a GGSHHHHHH at C-terminus)
B16: W9C Badan: tsGBP2_C9 (SEQ ID NO: 18) Badan conjugate (conjugate)
chain: B1 chain with W9C, C277S
modifications: Badan conjugate; tsGBP2_C9 (9C substitution mutant with signal peptide replaced with M and a GGSHHHHHH at C-terminus)
B17: W8F B: tsGBP2.13C.W8F (SEQ ID NO: 37) Badan conjugate (conjugate)
chain: B1 chain with W8F, E13C, C277S
modifications: Badan conjugate; tsGBP2.13C.W8F (13C, 8F double substitution mutant)
B18: W8M B: tsGBP2.13C.W8M (SEQ ID NO: 38) Badan conjugate (conjugate)
chain: B1 chain with W8M, E13C, C277S
modifications: Badan conjugate; tsGBP2.13C.W8M (13C, 8M double substitution mutant with signal peptide replaced with M and a GGSHHHHHH at C-terminus)
B19: W8F A: tsGBP2.13C.W8F (SEQ ID NO: 37) Acrylodan conjugate (conjugate)
chain: B1 chain with W8F, E13C, C277S
modifications: Acrylodan conjugate; tsGBP2.13C.W8F (13C, 8F double substitution mutant)

Experiment: Ratiometric fluorescence glucose titration of fluorescent conjugates
Assay type: binding
Design: key to Shape (fluorescence response to glucose) / Change (fluorescence response to glucose): m, monochromatic; d, dichromatic (i.e. spectral shape change); 0, no change
Details: tsGBP2 cysteine scan, Acrylodan conjugate
Procedure, shortened: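 Single-cysteine glucose-binding protein mutants labelled site-specifically with thiol-reactive environmentally sensitive fluorophores; emission spectra recorded during glucose titration to detect ligand-mediated intensity and spectral-shape changes for ratiometric read-out. Temperature- and ligand-dependent fluorescence landscapes acquired in 1K steps; binding fitted to single-site fractional saturation.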

Molecule | Shape (fluorescence response to glucose)
B1 | 0
B2 | m
B3 | m
B4 | m
B5 | m
B6 | m
B7 | d
B8 | 0

Same assay, conditions: tsGBP2 cysteine scan, Acrylodan conjugate; ratiometric fit at λ1 and λ2; read-out: Kd ^appKd

Molecule | Kd
B4 | ~1300 µM
B7 | 9 µM

Same assay, conditions: tsGBP2 cysteine scan, Acrylodan conjugate; ratiometric fit at λ1 and λ2; read-out: Kd ^trueKd

Molecule | Kd
B7 | 10 µM

Same assay, conditions: tsGBP2 cysteine scan, Badan conjugate

Molecule | Shape (fluorescence response to glucose)
B9 | 0
B10 | 0
B11 | m
B12 | 0
B13 | d
B14 | m
B15 | m
B16 | m

Same assay, conditions: tsGBP2 cysteine scan, Badan conjugate; ratiometric fit at λ1 and λ2; read-out: Kd ^appKd

Molecule | Kd
B13 | ~4300 µM

Same assay, conditions: tsGBP2 cysteine scan, Badan conjugate; ratiometric fit at λ1 and λ2; read-out: Kd ^trueKd

Molecule | Kd
B13 | ~5200 µM

Same assay, conditions: tsGBP 13C affinity mutants, Acrylodan or Badan conjugates

Molecule | Change (fluorescence response to glucose)
B17 | 0
B18 | m
B19 | 0

— patent publication US11402384B2 (Duke University, priority 2015, dated 2022)
